Measured values published in article PMC6778059 (Nature cell biology, 2019).

T1: SNX5 PX domain (UniProt Q9Y5X3 25-172)
T1 sequence: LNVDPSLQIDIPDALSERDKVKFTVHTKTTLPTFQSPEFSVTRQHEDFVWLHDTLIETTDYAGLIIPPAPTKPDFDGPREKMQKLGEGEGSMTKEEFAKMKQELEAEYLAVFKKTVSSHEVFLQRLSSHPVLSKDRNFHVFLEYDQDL

T2: SNX6 PX domain (UniProt Q9UNH7 26-173)
T2 sequence: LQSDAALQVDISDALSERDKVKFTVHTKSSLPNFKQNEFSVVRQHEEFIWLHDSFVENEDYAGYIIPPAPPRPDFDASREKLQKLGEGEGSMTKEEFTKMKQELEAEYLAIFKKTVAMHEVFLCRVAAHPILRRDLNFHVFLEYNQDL


Columns and labels:
Assay in all cases: ITC
[1] = biological target: SNX32 PX domain
[2] = biological target: T1, SNX5 PX domain
[3] = biological target: T2, SNX6 PX domain

Kd [2] [µM]	binding result [2]	Molecule	further results
		CI-MPR peptide (residues 2347-2375) (from UniProt P11717 2347-2375)	Kd [1]: 12 µM
15		REVSFYYSEENKLPEPEELDLEPENMES [IGF1R peptide (residues 1275-1302)]	
	binds	SNVSYKYSKVNKEEETDENETEAAAEEIQ [CI-MPR peptide WLM-AAA]	
~25		SNVSYKYSKVNKEEETDENETEWLMEEIQ [CI-MPR peptide (residues 2347-2375)]	Kd [3]: 24 µM
	binds	SNVSYKYSKVNKEEETDENETEWLDEEIQ [CI-MPR peptide M2371D]	
	binds	SNVSYKYSKVNKEEETDENETEWDMEEIQ [CI-MPR peptide L2370D]	
26		WDPVGYYYSDGSLKIVPGHARCQPG [SEMA4C peptide (residues 731-755)]	
